# From patent US9119839B2, “Cancer treatment” (Pfizer Inc., priority 2009, dated 2015)
# B1: tremelimumab (antibody, listed as Homo sapiens)
# VH: GVVQPGRSLRLSCAASGFTFSSYGMHWVRQAPGKGLEWVAVIWYDGSNKYYADSVKGRFTISRDNSKNTLYLQMNSLRAEDTAVYYCARDPRGATLYYYYYGMDVWGQGTTVTVSSASTKGPSVFPLAPCSRSTSESTAALGCLVKDYFPEPVTVSWNSGALTSGVH
# VL: PSSLSASVGDRVTITCRASQSINSYLDWYQQKPGKAPKLLIYAASSLQSGVPSRFSGSGSGTDFTLTISSLQPEDFATYYCQQYYSTPFTFGPGTKVEIKRTVAAPSVFIFPPSDEQLKSGTASVVCLLNNFYPREAKV
# notes: anti-CTLA4 monoclonal IgG2 antibody 11.2.1; Arm A of trial A3671009
# Columns and labels:
# [1] = tested on: previously-untreated, unresectable melanoma; test: Clinical trial A3671009, randomized multicenter Phase 3 study of tremelimumab versus chemotherapy: overall survival by baseline serum CRP category; assay type: in vivo, human; details: for Median OS: tremelimumab 15 mg/kg i.v. every 90 days (Arm A) or dacarbazine/temozolomide (Arm B); for HR (hazard ratio for survival for the two treatment arms): CTLA4 blockade versus chemotherapy
# Procedure: Patients randomized to Arm A received intravenous tremelimumab at a dose of 15 mg/kg every 90 days for up to four doses. Patients randomized to Arm B received either dacarbazine at 1000 mg/m^2 or temozolomide at 200 mg/m^2 at the discretion of the investigator. The primary objective of the trial was to compare overall survival of patients in the two treatment arms. Objective tumor response was a secondary endpoint. In the A3671009 trial, serum CRP was measured in most patients before initiation of treatment. In the analysis described below, baseline CRP refers to the result of a CRP assay performed on serum drawn from patients up to 14 days prior randomization into the study. […] The hazard ratio of 1.48 represents a 48% improvement in overall survival in favor of patients who received CTLA4 blockade.
# CRP = details: treatment with IL-6 / IL-6 receptor inhibitor; cited from earlier work
# [2] = patients with baseline CRP > 1.5 ULN
# [3] = patients with baseline CRP ≦ 1.5 ULN
Molecule,"Median OS [1, 2] [months]","Median OS [1, 3] [months]",effect on CRP levels (CRP),"HR (hazard ratio for survival for the two treatment arms) ([1]; baseline CRP > 1.5 ULN, P-value 0.3076)","HR (hazard ratio for survival for the two treatment arms) ([1]; baseline CRP ≦ 1.5 ULN, P-value 0.0037)","improvement in overall survival ([1]; low baseline CRP, in favor of CTLA4 blockade versus chemotherapy) [%]","difference in overall survival between treatment groups ([1]; patients with high baseline CRP, versus chemotherapy (FIG. 2))","difference in overall survival between treatment groups ([1]; patients with low baseline CRP, versus chemotherapy (FIG. 1))"
"dacarbazine or temozolomide [Chemotherapy, reference compound]",6.1,12.7,,,,,,
tocilizumab,,,reduce CRP levels,,,,,
B1,6.1,19.1,,0.86,1.48,48,no apparent difference,clinically meaningful and statistically significant difference
